PMC7292828, “Mechanical unfolding of a knotted protein unveils the kinetic and thermodynamic consequences of threading a polypeptide chain” (Scientific Reports, 2020)

Target: the molecule itself
Assay: SEC; size exclusion chromatography on a Superdex S75 column (GE Healthcare); dimeric state in solution

Protein | stoichiometry N
MJ0366 from Methanocaldococcus jannaschii, wild type (natural protein, UniProt Q57812 1-92, looked up, MJ0366, Methanocaldococcus jannaschii, knotted protein of 92 residues; If it was, ENLYFQ would remain at the C-terminus; also called wild type protein) MPLVGFMKEKKRATFYLYKNIDGRKLRYLLHKLENVENVDIDTLRRAIEAEKKYKRSITLTEEEEVIIQRLGKSANLLLNCELVKLDEGERA | 2
MJ0366 construct F6C/K73C in the background of C81A (natural protein, Methanocaldococcus jannaschii, UniProt Q57812 1-92, looked up, MJ0366, Methanocaldococcus jannaschii, 92 residues; double cysteine mutant with C81A; A TEV site ENLYFQG stands between the C-terminus and the His tag) MPLVGCMKEKKRATFYLYKNIDGRKLRYLLHKLENVENVDIDTLRRAIEAEKKYKRSITLTEEEEVIIQRLGCSANLLLNAELVKLDEGERA | 2
MJ0366 construct K19C/K73C in the background of C81A (natural protein, Methanocaldococcus jannaschii, UniProt Q57812 1-92, looked up, MJ0366, Methanocaldococcus jannaschii, 92 residues; double cysteine mutant with C81A; A TEV site ENLYFQG stands between the C-terminus and the His tag; also called F19C/K73C (as printed once in the results)) MPLVGFMKEKKRATFYLYCNIDGRKLRYLLHKLENVENVDIDTLRRAIEAEKKYKRSITLTEEEEVIIQRLGCSANLLLNAELVKLDEGERA | 2
MJ0366 construct F6C/G89C in the background of C81A (natural protein, Methanocaldococcus jannaschii, UniProt Q57812 1-92, looked up, MJ0366, Methanocaldococcus jannaschii, 92 residues; double cysteine mutant with C81A; A TEV site ENLYFQG stands between the C-terminus and the His tag; also called K6C/K89C (as printed once in the discussion)) MPLVGCMKEKKRATFYLYKNIDGRKLRYLLHKLENVENVDIDTLRRAIEAEKKYKRSITLTEEEEVIIQRLGKSANLLLNAELVKLDECERA | 2
